This note sets out measurements from US20230181719A1, “NGR CONJUGATES AND USES THEREOF” (OSPEDALE SAN RAFFAELE S.R.L., priority 2020, published 2023).

One data set concerns the target αvβ3 (Homo sapiens, UniProt P05106+P06756). In words: Competitive binding of acetyl-CisoDGRCG/streptavidin-peroxidase to integrin-coated microtiterplates. The following applies: αvβ3, αvβ5, αvβ6, αvβ8 and α5β1 (all integrins). From the text: To assess whether the isoDGR derivative of S-NGR-TNF and NGR-TNF targeting domains can recognize integrins with similar affinities inventors then analysed the binding of SCisoDGRCGVRY (SEQ ID NO: 17), CisoDGRCGVRY and acetyl-CisoDGRCGVRY to αvβ3, αvβ5, αvβ6 αvβ8 and α5β1 integrins using a competitive binding assay previously described (Curnis et al. 2010). […] As expected […] (SEQ ID NO: 3) and […] […] Considering that human NGR-TNF contains acetylated and non-acetylated forms and that both CNGRC (SEQ ID NO:5) and acetyl-CNGRC can undergo deamidation (Curnis et al. 2010), inventors can conclude that the isoDGR derivative of S-NGR-TNF, if formed, behave in a manner similar to those of the isoDGR derivatives of NGR-TNF in terms of integrin recognition.

In a further data set the test system is L-M cells. Put plainly: LM-cells cytolytic assay (MTT). It counts as cell-based. The following applies: actinomycin D, 20 h, murine proteins. From the text:
FIG. 8. Biochemical and biological characterization of murine S-NGR-TNF and NGR-TNF. A) SDS-PAGE under reducing (βMe +) and non-reducing conditions (βMe -) of murine S-NGR-TNF, NGR-TNF and TNF. Arrows: bands corresponding to monomeric subunits (mon) and reducible dimers (dim). B) Representative mass spectra of murine NGR-TNF, TNF and S-NGR-TNF as determined by a Q Exactive HF mass spectrometer. Expected average masses are shown. C) Cytotoxic activity of TNF, NGR-TNF and S-NGR-TNF against L-M cells. L-M cells were incubated in DMEM medium supplemented with 2 mM glutamine, 100 U/ml penicillin, 100 µg/ml streptomycin, 0.25 µg/ml amphotericin-B, 10% fetal bovine serum, 2 µg/ml actinomycin D and TNF, NGR-TNF or S-NGR-TNF at the indicated doses (20 h at 37° C., 5% CO2). Cell viability was quantified by standard 3-(4,5-dimethylthiazol-2-yl)-2,5-diphenyltetrazolium bromide (MTT) assay. D) Binding of TNF, NGR-TNF and S-NGR-TNF to sTNF-R1 (Etanercept). Microtiterplates were precoated with or without the indicated amount of sTNF-R1 (for 16 h), washed with PBS, blocked with PBS containing 3% milk, 1% BSA (binding buffer, 1 h) and incubated with the indicated amounts of TNF, NGR-TNF or S-NGR-TNF diluted in binding buffer (for 1.5 h). The binding of each protein to sTNF-R1 was then detected using a polyclonal anti-murine TNF (IP301, 5 µg/ml in binding buffer, 1 h) followed by a polyclonal goat anti-rabbit antibody conjugated with horseradish peroxidase (1:1000 in binding buffer, 1 h) and o-phenylendiammine as chromogenic substrate.
To assess whether the addition of a serine residue to NGR-TNF affects its capability to recognize the TNF receptors and, consequently, its biological activity, inventors then analyzed the cytotoxic activity of TNF, NGR-TNF and S-NGR-TNF in the LM-cells cytolytic assay.

Data set [1] in a line: Peptide deamidation stability upon incubation at 37° C., by mass spectrometry. The following applies: pH 7.4. It is filed as physicochemical. On the procedure:
FIG. 11. The peptide SCNGRCGVRY (SEQ ID NO: 3) has a lower propensity to deamidate than CNGRCGVRY (SEQ ID NO:4) in a physiological buffer at […], but not in ammonium bicarbonate buffer at pH 8.5. A and B) MS analysis of SCNGRCGVRY (SEQ ID NO: 3) and CNGRCGVRY (SEQ ID NO:4) after incubation at 37° C. for the indicated time in 50 mM sodium phosphate buffer, pH 7.4 (PBS) or 0.1 M ammonium bicarbonate buffer, pH 8.5 (Ambic). The values +0, + 1, -17 reported in the plot correspond to the difference between the observed and the expected molecular mass of peptides expressed in daltons. MS analysis was performed using the LTQ-Orbitrap mass spectrometer (Thermo Scientific).
To assess whether the addition of the serine residue to CNGRCG (SEQ ID NO:1) might affect its deamidation propensity inventors synthetized the SCNGRCGVRY (SEQ ID NO: 3) and CNGRCGVRY (SEQ ID NO:4) peptides and studied their stability upon incubation at 37° C. in PBS, pH 7.4, by mass spectrometry.
A similar experiment was then performed with peptides in 0.1 M ammonium bicarbonate, pH 8.5, a condition known to force Asn deamidation (Curnis et al. 2006). […] Furthermore, the succinimide-derivative of S-NGR-TNF, when formed, is more prone to hydrolysis.

The target of data set [2] is T1, recombinant human histidine-tagged CD13 (human, UniProt P15144 69-967, limits assumed).
T1 construct: Histidine tag present; also called aminopeptidase N
Put plainly: CD13 enzyme kinetics inhibition, 50 mM Tris-HCl buffer, pH 7.4.

The target of data set [3] is T1, recombinant human histidine-tagged CD13. Put plainly: CD13 enzyme kinetics inhibition, 60 mM potassium phosphate buffer, pH 7.4. The text has this:
FIG. 10. The peptide […] (SEQ ID NO: 3) inhibits CD13 enzymatic activity more efficiently than […] (SEQ ID NO:4) and acetylated-[…]. A) Steady state kinetic analysis of CD13 in the presence of various amounts of L-alanine p-nitroanilide substrate and […] (SEQ ID NO: 3), […] (SEQ ID NO:4), or acetylated-[…] (ac-[…]) (SEQ ID NO:42). A representative plot of 3-4 independent experiments, showing the initial velocity (V₀) versus substrate concentration (mean ± SE of four technical replicates), is shown. The assays were performed with recombinant human histidine-tagged CD13 (200-300 ng/ml) in 60 mM potassium phosphate buffer, pH 7.4, at room temperature. The kinetic of p-nitroanilide formation was monitored spectrophotometrically (A405 nm) for 5-10 min. The inhibitory constant (Ki) reported in each plot is the result of the 3-4 independent experiments (mean ± SE). B) Double reciprocal plots of the experiments reported in panel A.
Each experiment was performed with 4 technical replicates

Another data set deals with T2, αvβ5 integrin (UniProt P06756 31-992; P18084 24-719, limits assumed).
T2 construct: Coated on microtiter plates
In words: competitive binding assay, integrin-coated plates; competitor probe acetyl-CisoDGRCG/streptavidin-peroxidase. From the text:
(§1) To assess whether the isoDGR derivative of S-NGR-TNF and NGR-TNF targeting domains can recognize integrins with similar affinities inventors then analysed the binding of SCiso[…] (SEQ ID NO: 17), Ciso[…] and acetyl-Ciso[…] to αvβ3, αvβ5, αvβ6 αvβ8 and α5β1 integrins using a competitive binding assay previously described (Curnis et al. 2010). […] Considering that human NGR-TNF contains acetylated and non-acetylated forms and that both CNGRC (SEQ ID NO:5) and acetyl-CNGRC can undergo deamidation (Curnis et al. 2010), inventors can conclude that the isoDGR derivative of S-NGR-TNF, if formed, behave in a manner similar to those of the isoDGR derivatives of NGR-TNF in terms of integrin recognition.
(§2) a) Competitive binding of acetyl-CisoDGRCG/streptavidin-peroxidase to integrins. The binding assay was performed using integrin-coated microtiterplates as previously described (Curnis et al. 2013). b) n, number of independent experiments, each in duplicate.

A further data set has as its target T3, αvβ3 integrin (UniProt P06756 31-992; P05106 27-718, limits assumed).
T3 construct: Coated on microtiter plates
The description is as above.
Excerpt: as §1, §2

For a further data set, the target named is T4, αvβ8 integrin (UniProt P06756 31-992; P26012 43-684, limits assumed).
T4 construct: Coated on microtiter plates
Described as above.
Excerpt: as §1, §2

Another data set deals with T5, αvβ6 integrin (UniProt P06756 31-992; P18564 22-707, limits assumed).
T5 construct: Coated on microtiter plates
Described as above.
Excerpt: as §1, §2

The target in the next data set is T6, α5β1 integrin (UniProt P08648 42-995; P05556 21-728, limits assumed).
T6 construct: Coated on microtiter plates
Described as above.
Excerpt: as §1, §2

Starred links: 1 amine or outer side, 2 acyl side, 3 side chain; linkers in the order of their positions; H or OH if unused. Positions of bridges follow the written chain, without caps; N, C: chain ends. Non-standard residues stand in square brackets, D forms with d. Residues, ends and D or L forms follow the SMILES beside them. No end group written: not given here. βAsp = O=C(O)[C@H](CC(=O)[*:2])N[*:1] A value given as a limit tells only on which side of the number the result lay.

Take `CC(C)[C@H](NC(=O)CNC(=O)[C@@H]1CSSC[C@H](NC(=O)[C@@H](N)CO)C(=O)N[C@@H](CC(=O)O)C(=O)NCC(=O)N[C@@H](CCCNC(=N)N)C(=O)N1)C(=O)N[C@@H](CCCNC(=N)N)C(=O)N[C@@H](Cc1ccc(O)cc1)C(=O)O` [SCDGRCGVRY, SCDGRCGVRY (SEQ ID NO:22)] (H-SCDGRCGVRY-OH; disulfide 2-6; N-terminus and C-terminus assumed): the affinity for integrins entry on αvβ3 is “no or very low affinity”.

On to “TNF: Murine tumor necrosis factor-α (SEQ ID NO: 15) [reference compound]”, for which, in the data set with L-M cells, the EC50 cytotoxic activity result was “very similar”.

Turning to `CC(C)[C@H](NC(=O)CNC(=O)[C@@H]1CSSC[C@H](N)C(=O)N[C@@H](CC(N)=O)C(=O)NCC(=O)N[C@@H](CCCNC(=N)N)C(=O)N1)C(=O)N[C@@H](CCCNC(=N)N)C(=O)N[C@@H](Cc1ccc(O)cc1)C(=O)O` [CNGRCGVRY, CNGRCGVRY (SEQ ID NO:4), reference compound] (H-CNGRCGVRY-OH; disulfide 1-5 (inferred); N-terminus and C-terminus assumed), the “-17 Da form (succinimide intermediate of deamidation)” value in [1] (after 2 h at 37° C. in PBS) is listed as “observed”. In [1] (after 32 h at 37° C. in PBS), the “+1 Da deamidation product (DGR/isoDGR)” value is “observed” and the “-17 Da form still present” value is “a large amount of the -17 Da form was still present”.

B1: SCNGRCGVRY peptide (peptide)
peptide: SCNGRCGVRY
modifications: disulfide 2-6
notes: Synthetic peptide corresponding to the N-terminal region of human S-NGR-TNF
As for B1, the Ki in data set [2] is 6800 nM; in data set [3], 25000 nM; in the data set with αvβ5 integrin, above 10000 nM; with αvβ3 integrin, above 10000 nM; in the data set with αvβ8 integrin, above 10000 nM; in the data set with αvβ6 integrin, above 10000 nM. Further, the inhibition constant (Ki) in the data set with α5β1 integrin is above 10000 nM.

B2: SCDGRCGVRY peptide (peptide)
peptide: SCDGRCGVRY
In the case of B2, the inhibition constant (Ki) with αvβ5 integrin stood at 779 nM; in the data set with αvβ3 integrin it was 3340 nM; with αvβ8 integrin, 21400 nM; with αvβ6 integrin, 5500 nM; with α5β1 integrin it was 4790 nM.

B3: SCisoDGRCGVRY peptide (peptide)
peptide: SC[βAsp]GRCGVRY
modifications: disulfide 2-6
Turning to B3, the Ki in the data set with αvβ5 integrin is 77 nM; with αvβ3 integrin it was 17 nM; with αvβ8 integrin, 156 nM; with αvβ6 integrin it was 25 nM; with α5β1 integrin, 11 nM.

B4: CNGRCGVRY peptide (peptide)
peptide: CNGRCGVRY
modifications: disulfide 1-5
notes: Synthetic peptide corresponding to the N-terminal region of human NGR-TNF
For B4, the Ki in data set [2] is 35600 nM; in data set [3], 76500 nM.

B5: acetylated-CNGRCGVRY peptide (peptide)
peptide: Ac-CNGRCGVRY
modifications: disulfide 1-5
Turning to B5, the inhibition constant Ki was found to be 38100 nM in data set [2] and 50700 nM in data set [3].

B6: CisoDGRCGVRY peptide (peptide)
peptide: C[βAsp]GRCGVRY
modifications: disulfide 1-5
For the molecule B6, the inhibition constant Ki with αvβ5 integrin is 391 nM; with αvβ3 integrin, 11 nM; with αvβ8 integrin, 554 nM; with αvβ6 integrin it was 131 nM; with α5β1 integrin it was 75 nM.

B7: acetyl-CisoDGRCGVRY peptide (peptide)
peptide: Ac-C[βAsp]GRCGVRY
modifications: disulfide 1-5
Consider B7, for which the Ki with αvβ5 integrin is 21 nM; with αvβ3 integrin, 3 nM; with αvβ8 integrin it was 18 nM; with αvβ6 integrin, 5 nM; with α5β1 integrin it was 4 nM.

What is called Ki is a dissociation constant, usually derived from enzyme kinetics or from competition with a known ligand.
